# T1: 19-mer (SEQ ID NO:11) PRCGNPDVANYNFFPRKPK
# T1 chain: PRCGNPDVANYNFFPRKPK
# B1: Proenzyme pro-MMP-9 (protein)
# chain: APRQRQSTLVLFPGDLRTNLTDRQLAEEYLYRYGYTRVAEMRGESKSLGPALLLLQKQLSLPETGELDSATLKAMRTPRCGVPDLGRFQTFEGDLKWHHHNITYWIQNYSEDLPRAVIDDAFARAFALWSAVTPLTFTRVYSRDADIVIQFGVAEHGDGYPFDGKDGLLAHAFPPGPGIQGDAHFDDDELWSLGKGVVVPTRFGNADGAACHFPFIFEGRSYSACTTDGRSDGLPWCSTTANYDTDDRFGFCPSERLYTQDGNADGKPCQFPFIFQGQSYSACTTDGRSDGYRWCATTANYDRDKLFGFCPTRADSTVMGGNSAGELCVFPFTFLGKEYSTCTSEGRGDGRLWCATTSNFDSDKKWGFCPDQGYSLFLVAAHEFGHALGLDHSSVPEALMYPMYRFTEGPPLHKDDVNGIRHLYGPRPEPEPRPPTTTTPQPTAPPTVCPTGPPTVHPSERPTAGPTGPPSAGPTGPPTAGPSTATTVPLSPVDDACNVNIFDAIAEIGNQLYLFKDGKYWRFSEGRGSRPQGPFLIADKWPALPRKLDSVFEERLSKKLFFFSGRQVWVYTGASVLGPRRLDKLGLGADVAQVTGALRSGRGKMLLFSGRRLWRFDVKAQMVDPRSASEVDRMFPGVPLDTHDVFQYREKAYFCQDRFYWRVSSRSELNQVDQVGYVTYDILQCPED
# Target: T1, 19-mer (SEQ ID NO:11) …
protein,measurement,value
B1,conversion of pro-MMP-9 into prodomain and active enzyme by stromilysin (HPLC peak areas),Titrating the standard splicing reaction with the 19-mer prevents the conversion of pro-MMP-9 into the prodomain and the active enzyme. Splicing can be inhibited in a dose dependent manner with micromolar 19-mer.
